{"source": "paper PMC3401373", "about": "“ATM-Dependent Downregulation of USP7/HAUSP by PPM1G Activates p53 Response to DNA Damage” (Molecular Cell, 2012)", "target": "T1, His-tagged USP7S (Ser18-containing isoform of USP7/HAUSP), purified recombinant (human, UniProt Q93009 1-1102, phosphoserine at 18 as purified from insect cells; not stated whether the phosphorylated or the dephosphorylated form stood in the pull-down of Figure 4D)", "T1 construct": "USP7 (HAUSP), human, the isoform that contains serine 18 (USP7S); also called pUSP7S; source: recombinant, purified from insect cells", "T1 sequence (Q93009 whole entry, canonical isoform)": "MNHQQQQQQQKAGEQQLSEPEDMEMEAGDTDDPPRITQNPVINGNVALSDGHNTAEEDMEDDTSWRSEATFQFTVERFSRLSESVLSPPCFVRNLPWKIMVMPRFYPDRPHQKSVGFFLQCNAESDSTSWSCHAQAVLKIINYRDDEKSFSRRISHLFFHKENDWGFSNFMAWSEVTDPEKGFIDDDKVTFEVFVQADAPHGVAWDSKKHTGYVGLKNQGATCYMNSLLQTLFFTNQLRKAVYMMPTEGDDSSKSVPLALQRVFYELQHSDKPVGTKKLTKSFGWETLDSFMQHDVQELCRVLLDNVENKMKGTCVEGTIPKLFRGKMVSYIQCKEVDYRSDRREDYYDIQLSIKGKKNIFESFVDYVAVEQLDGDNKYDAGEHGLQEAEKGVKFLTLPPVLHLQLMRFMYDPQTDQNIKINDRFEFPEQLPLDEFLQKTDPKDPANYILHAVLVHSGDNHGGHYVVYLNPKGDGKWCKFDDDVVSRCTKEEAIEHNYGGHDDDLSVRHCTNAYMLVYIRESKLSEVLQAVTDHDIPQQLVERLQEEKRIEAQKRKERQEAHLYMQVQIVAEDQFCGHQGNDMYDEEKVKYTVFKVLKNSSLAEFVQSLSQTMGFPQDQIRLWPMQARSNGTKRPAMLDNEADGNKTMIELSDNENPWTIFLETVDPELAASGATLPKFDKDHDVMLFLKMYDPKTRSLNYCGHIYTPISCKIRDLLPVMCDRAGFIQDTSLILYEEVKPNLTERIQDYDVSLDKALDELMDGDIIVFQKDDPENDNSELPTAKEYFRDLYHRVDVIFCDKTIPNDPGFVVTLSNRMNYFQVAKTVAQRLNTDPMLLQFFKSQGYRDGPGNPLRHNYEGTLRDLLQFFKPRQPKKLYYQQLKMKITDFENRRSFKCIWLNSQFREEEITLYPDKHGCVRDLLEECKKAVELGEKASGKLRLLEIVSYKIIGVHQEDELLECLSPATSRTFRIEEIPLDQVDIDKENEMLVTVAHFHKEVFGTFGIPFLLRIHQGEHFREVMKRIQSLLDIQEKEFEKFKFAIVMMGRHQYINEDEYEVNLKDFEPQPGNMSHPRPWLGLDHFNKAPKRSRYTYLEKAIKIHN", "test": "pull-down; equal amounts (0.42 pmol) of purified His-tagged USP7S and PPM1G incubated at room temperature for 30 min; USP7S pulled down with magnetic Ni-NTA agarose beads (magnetic beads as mock control); western blot with USP7S and PPM1G antibodies", "conditions": "both partners purified", "data": [{"binder": "PPM1G, purified recombinant (enzyme, human, UniProt O15355 1-546, looked up, Serine/threonine protein phosphatase PPM1G (PP2Cγ), human; also called PP2Cγ; PPM1GGST; source: purified recombinant) MGAYLSQPNTVKCSGDGVGAPRLPLPYGFSAMQGWRVSMEDAHNCIPELDSETAMFSVYDGHGGEEVALYCAKYLPDIIKDQKAYKEGKLQKALEDAFLAIDAKLTTEEVIKELAQIAGRPTEDEDEKEKVADEDDVDNEEAALLHEEATMTIEELLTRYGQNCHKGPPHSKSGGGTGEEPGSQGLNGEAGPEDSTRETPSQENGPTAKAYTGFSSNSERGTEAGQVGEPGIPTGEAGPSCSSASDKLPRVAKSKFFEDSEDESDEAEEEEEDSEECSEEEDGYSSEEAENEEDEDDTEEAEEDDEEEEEEMMVPGMEGKEEPGSDSGTTAVVALIRGKQLIVANAGDSRCVVSEAGKALDMSYDHKPEDEVELARIKNAGGKVTMDGRVNGGLNLSRAIGDHFYKRNKNLPPEEQMISALPDIKVLTLTDDHEFMVIACDGIWNVMSSQEVVDFIQSKISQRDENGELRLLSSIVEELLDQCLAPDTSGDGTGCDNMTCIIICFKPRNTAELQPESGKRKLEEVLSTEGAEENGNSDKKKKAKRD", "values": [{"measurement": "binding result", "result": "binds"}]}]}
